The target in the data set is IDX-1 (IDX-1/pBJ5 expressed in NIH-3T3) (Rattus norvegicus) (UniProt P52947). The data set can be described thus: cell_activity.

Results on three substances are retold here after patent US5858973.

Chain of IDX-1 (IDX-1/pBJ5 expressed in NIH-3T3) (Rattus norvegicus) (P52947 other isoform, or with tags, fused parts or gaps): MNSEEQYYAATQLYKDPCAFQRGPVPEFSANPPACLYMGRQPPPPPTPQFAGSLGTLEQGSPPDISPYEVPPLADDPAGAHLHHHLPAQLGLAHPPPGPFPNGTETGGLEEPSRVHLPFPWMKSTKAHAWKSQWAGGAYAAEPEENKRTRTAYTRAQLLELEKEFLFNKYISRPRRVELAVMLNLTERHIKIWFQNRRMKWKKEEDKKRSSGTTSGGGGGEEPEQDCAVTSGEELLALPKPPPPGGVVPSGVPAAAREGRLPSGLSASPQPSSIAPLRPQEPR

As to SMS(-900/-250)TKCAT, for the setting “parent TKCAT not activated”, the activity was determined as 4 fold.
The substance SMS900CAT promoter (-900 to +54) returned an activity (CAT reporter in NIH-3T3) of 4 fold.
Same read-out and setting: to SMS900(delta-250/-120)CAT promoter belongs 5 fold.
